Legend:
Hemoglobin [1] = assay: competitive ECL 5-FU assay, Bi-61C6 beads and TAG Plus 1-5C-5-FU-BSA, hemoglobin 10 mg/mL in plasma without 5-FU
Hemoglobin [2] = assay: competitive ECL 5-FU assay, Bi-61C6 beads and TAG Plus 1-5C-5-FU-BSA, hemoglobin 10 mg/mL in plasma with 1000 ng/mL spiked 5-FU
Hemoglobin [3] = assay: competitive ECL 5-FU assay, Bi-61C6 beads and TAG Plus 1-5C-5-FU-BSA, hemoglobin 10 mg/mL in plasma with 75 ng/mL spiked 5-FU

B1: monoclonal antibody 61C6 (antibody, mouse IgG2b, kappa, V domains shown)
VH: QIQLVQSGPELKKPGETVTISCKASGYTLTNYGMNWVKQAPGKGLKWMGWINTNSGEPTYVEEFKGRFAFSLETSVSTVYLQISDLKHEDTATYFCARWGPHFNAYGWFAYWGQGTLVTVSA
VL: YIQMTQTASSLSASLGDRVTISCRASQDIWNYLNWYQQKPDGTIKLLIYYKSRLHSGVPSRFSGSGSGIDFSLTISNLEQEDFATYFCQQGHTLPWTFGGGSKLEIKR
modifications: biotinylated on primary amines with EZ-Link Sulfo-NHS-LC-Biotin (positions not stated)
**Q.** Which % Cross-React (Hemoglobin [1]) does the source give for B1 here?
**A.** 0%

**Q.** What about the % Cross-React (Hemoglobin [2]) of the same binder?
**A.** -0.1%

**Q.** And the % Cross-React (Hemoglobin [3])?
**A.** 0%

From patent US20150079612A1
